In PMC9112662, “Scaffold stability and P14′ residue steric hindrance in the differential inhibition of FXIIa by Aedes aegypti trypsin inhibitor versus Infestin-4” (Bioscience Reports, 2022) one finds IC50 of inhibition of FXIIa activity, chromogenic assay (substrate S-2302) data, which are given here for 6 substances.

The assay deals with human Factor XIIa (human) (UniProt P00748).
human Factor XIIa (human), sequence (P00748 20-615): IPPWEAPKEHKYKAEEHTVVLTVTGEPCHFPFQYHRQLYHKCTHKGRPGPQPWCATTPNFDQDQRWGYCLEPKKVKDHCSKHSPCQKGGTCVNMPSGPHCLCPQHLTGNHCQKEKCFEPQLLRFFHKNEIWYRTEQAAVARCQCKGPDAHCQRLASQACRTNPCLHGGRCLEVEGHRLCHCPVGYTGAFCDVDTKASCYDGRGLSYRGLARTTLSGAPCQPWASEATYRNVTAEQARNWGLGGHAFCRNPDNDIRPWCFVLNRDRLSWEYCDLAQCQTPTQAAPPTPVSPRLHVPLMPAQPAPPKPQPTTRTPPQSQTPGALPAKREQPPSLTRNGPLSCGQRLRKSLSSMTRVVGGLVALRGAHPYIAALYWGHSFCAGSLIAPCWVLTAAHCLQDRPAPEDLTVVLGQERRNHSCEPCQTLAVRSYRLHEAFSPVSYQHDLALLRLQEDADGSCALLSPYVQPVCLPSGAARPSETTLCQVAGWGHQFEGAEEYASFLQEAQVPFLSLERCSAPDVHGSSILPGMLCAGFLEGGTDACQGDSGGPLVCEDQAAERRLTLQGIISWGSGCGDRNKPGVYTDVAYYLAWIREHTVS
The substance AaTI_Inf4 C1C3+C5C6+N27G showed an IC50 of inhibition of FXIIa activity, chromogenic assay (substrate S-2302) of 11.4 nM. In turn, Inf4_F10P+N12I (domain or fragment) displayed an IC50 of inhibition of FXIIa activity, chromogenic assay (substrate S-2302) of 22.8 nM. With “Inf4_F10P+N12I+V14M (domain or fragment)” the figure was 70.5 nM; with Inf4_F10P+V14M (domain or fragment), 42.1 nM; with Inf4_G25N (domain or fragment), 54.1 nM. Turning to Inf4_N12I+V14M (domain or fragment), the IC50 of inhibition of FXIIa activity, chromogenic assay (substrate S-2302) came out at 7.9 nM.
